Data taken from article PMC3680461, “Diversity of Plant Methionine Sulfoxide Reductases B and Evolution of a Form Specific for Free Methionine Sulfoxide” (PLoS ONE, 2013).
Changes are numbered by the printed parent chain.

Experiments:
GmMSRB4 = target: T1, GmMSRB4 (Glycine max, UniProt I1ME37); test: NADPH consumption, TRX-coupled; type: biochemical; settings: 25 µM yeast TRX2, 2 µM TRX reductase, 200 µM NADPH; S/R mixture used, Km given as half of measured value; read-out: Free L-MetO / Km (μM)^c
T1 construct: gene LOC100784622; without predicted N-terminal chloroplast signal peptide (predicted TP length 67), pET21b His-tag, E. coli BL21(DE3), purified
T1 sequence (I1ME37 68-204): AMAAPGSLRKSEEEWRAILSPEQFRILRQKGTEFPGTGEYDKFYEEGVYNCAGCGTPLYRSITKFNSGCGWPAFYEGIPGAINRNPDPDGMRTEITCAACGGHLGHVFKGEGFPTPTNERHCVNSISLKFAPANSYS
Source text: (§1) NADPH consumption, TRX-coupled on GmMSRB4

GmMSRB2 [1] = target: T2, GmMSRB2 (Glycine max, UniProt C6SXW1); test: NADPH consumption, TRX-coupled; type: biochemical; settings: 25 µM yeast TRX2, 2 µM TRX reductase, 200 µM NADPH; S/R mixture used, Km given as half of measured value; read-out: Free L-MetO / Km (μM)^c
T2 construct: full-length, pDEST17 His-tag, E. coli BL21(DE3), purified; cytosolic (no signal peptide predicted)
T2 sequence (C6SXW1 1-138): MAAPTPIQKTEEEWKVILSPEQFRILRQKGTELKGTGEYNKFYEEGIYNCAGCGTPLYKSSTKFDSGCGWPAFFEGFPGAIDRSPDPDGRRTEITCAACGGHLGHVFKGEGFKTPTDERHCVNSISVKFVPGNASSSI
Source text: (§2) NADPH consumption, TRX-coupled on GmMSRB2

GmMSRB2 [2] = target: T3, GmMSRB2 (Glycine max, UniProt C6SXW1, C68S); test: DTT-dependent MSR activity; type: biochemical; settings: DTT as reductant
T3 construct: full-length, pDEST17 His-tag, E. coli BL21(DE3), purified; cytosolic (no signal peptide predicted)
T3 sequence (C6SXW1 1-138 C68S): T2 sequence (C6SXW1 1-138) with C68S

GmMSRB1 = target: T4, GmMSRB1 (Glycine max, UniProt C6TFD8); test: DTT-dependent MSR activity; type: biochemical; settings: DTT as reductant
T4 construct: without predicted N-terminal chloroplast signal peptide (predicted TP length 45), pET21b His-tag, E. coli BL21(DE3), purified
T4 sequence (C6TFD8 46-202): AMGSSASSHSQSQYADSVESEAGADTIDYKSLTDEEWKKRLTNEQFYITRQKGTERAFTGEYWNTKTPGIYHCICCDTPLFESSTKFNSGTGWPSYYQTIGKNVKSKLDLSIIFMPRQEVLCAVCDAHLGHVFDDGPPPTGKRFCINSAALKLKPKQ

[3] = substrate: CC(=O)N[C@@H](CC[S+](C)[O-])C(=O)O; test: NADPH consumption, TRX-coupled; type: biochemical, Glycine max; settings: 25 µM yeast TRX2, 2 µM TRX reductase, 200 µM NADPH
Source text: as §2

[4] = substrate: CC(=O)N[C@@H](CC[S+](C)[O-])C(=O)O; test: NADPH consumption, TRX-coupled; type: biochemical, Glycine max; settings: 25 µM yeast TRX2, 2 µM TRX reductase, 200 µM NADPH; remark: listed apart in the source
Source text: as §1

Free L-MetO
Km (GmMSRB4): 1450 µM | Km (GmMSRB2 [1]): 2090 µM

CN(C)c1ccc(/N=N/c2ccc(S(=O)(=O)N[C@@H](CC[S@@+](C)[O-])C(=O)O)cc2)cc1 [dabsyl-MetO]
DTT-dependent MSR activity (GmMSRB2 [2]): the C68S GmMSRB2 mutant was active towards both protein-based and free MetO | DTT-dependent MSR activity (GmMSRB1): GmMSRB1 was two-fold more efficient than GmMSRB2 or GmMSRB4 in reducing dabsylated Met-R-O

B1: GmMSRB2 (Glycine max) (protein)
chain: T2 sequence (C6SXW1 1-138)
notes: full-length, pDEST17 His-tag, E. coli BL21(DE3), purified; cytosolic (no signal peptide predicted)
Km [3]: 49 ± 5 µM | kcat [3]: 2.04 ± 0.06 s⁻¹ | kcat/Km [3]: 42000 M⁻¹ s⁻¹

B2: GmMSRB4 (Glycine max) (protein)
chain: T1 sequence (I1ME37 68-204)
notes: without predicted N-terminal chloroplast signal peptide (predicted TP length 67), pET21b His-tag, E. coli BL21(DE3), purified
Km [4]: 49 ± 6 µM | kcat [4]: 0.24 ± 0.01 s⁻¹ | kcat/Km [4]: 5000 M⁻¹ s⁻¹
